Consider one substance from publication doi:10.1101/2024.04.26.591336.

The assay concerns the target NOTCH2^ΔERA-TurboID (human). As to the kind of experiment: proximity labelling.

“endogenous human NOTCH2 (from UniProt Q04721 26-2471) (natural protein)” had a Log2FC NICD2RA-vs-NICD2 of -2.03 Log2FC and a percent of the NOTCH2 recovered, NICD2RA against NICD2 of 13%.
